Entries after “also recorded” stand apart in the source; their conditions may differ.
B1: StBEL-11: BEL transcription factor from Solanum tuberosum, SEQ ID NO:4 (protein, listed as Solanum tuberosum)
chain: MTFRSSLPLDLREISTTNHQVGILSSSPLPSPGTNTNNINHTRGLGASSSFSISNGMILGSKYLKVAQDLLDEVVNVGKNIKLSDGLESGAKEKHKLDNELISLASDDVESSSQKNSGVELTTAQRQELQMKKAKLVSMLDEVDQRYRQYHHQMQMIATSFEQTTGIGSSKSYTQLALHTISKQFRCLKDAISGQIKDTSKTLGEEENIGGKIEGSKLKFVDHHLRQQRALQQLGMMQTNAWKPQRGLPERAVSVLRAWLFEHFLHPYPKDSDKIILAKQTGLTRSQVSNWFINARVRLWKPMVEEMYMEEVKKNNQEQNIEPNNNEIVGSKSSVPQEKLPISSNIIHNASPNDISTSTISTSPTGGGGSIPTQTVAGFSFIRSLNMENIDDQRNNKKARNEMQNCSTSTILSMEREIINKVVQDETIKSEKFNNTQTRECYSLMTPNYTMDDQFGTRFNNQNHEQLATTTTFHQGNGHVSLTLGLPPNSENQHNYIGLENHYNQPTHHPNISYENIDFQSGKRYATQLLQDFVS
B2: StBEL-14: BEL transcription factor from Solanum tuberosum, SEQ ID NO:8 (protein, listed as Solanum tuberosum)
chain: MVNHQLQNFETNPEMYNLSSTTSSMDQMIGFPPNNNNPHHVLWKGNFPNKINGVDDDDHGPSSSKNIISEQFYQHGSHENMLTTTTTHHDDHQGSWHHDNNRTLLVDDPSMRCVFPCEGNERPSHGLSLSLCSSNPSSIGLQSFELRHQDLQQGLIHDGFLGKSTNIQQGYFHHHHQVRDSKYLGPAQELLSEFCSLGIKKNNDHSSSKVLLKQHESTASTSKKQLLQSLDLLELQKRKTKLLQMLEEVDRRYKHYCDQMKAVVSSFEAVAGNGAATVYSALASRAMSRHFRCLRDGIVAQIKATKMAMGEKDSTSTLIPGSTRGETPRLRLLDQTLRQQKAFQQMNMMETHPWRPQRGLPERSVSVLRAWLFEHFLHPYPSDVDKHILARQTGLSRSQVSNWFINARVRLWKPMVEEMYLEETKEEENVGSPDGSKALIDDMTIHQSHIDHHQADQKPNLVRIDSECISSIINHQPHEKNDQNYGVIRGGDQSFGAIELDFSTNIAYGTSGGDHHHHGGGVSLTLGLQQHGGSGGSSMGLTTFSSQPSHNQSSLFYPRDDDQVQYSSLLDSENQNLPYRNLDGGTTSS
B3: StBEL-22: BEL transcription factor from Solanum tuberosum, SEQ ID NO:10 (protein, listed as Solanum tuberosum)
chain: TSVYETAGLLSEMFNFQTTSTAATELLQNQLSNNYRHPNQQPHHQPPTREWFGNRQEIVVGGSLQVTFGDTKDDVNAKVLLSNRDSVTDYYQRQHNQVPSINTAESMQLFLMNPQPSSPSQSTPSTLHQGFSSPVGGHFSQFMCGGASTSSNPIGGVNVIDQGQGLSLSLSSTLQHLEASKVEDLRMNSGGEMLFFNQESQNHHNIGFGSSLGLVNVLRNSKYVKATQELLEEFCCVGKGQLFKKINKVSRNNNTSTSPIINPSGSNNNNSSSSKAIIPPNLSTAERLDHQRRKVKLLSMLDEVEKRYNHYCEQMQMVVNSFDLVMGFGAAVPYTALAQKAMSRHFKCLKDGVAAQLKKTCEALGEKDASSSSGLTKGETPRLKVLEQSLRQQRAFQQMGMMEQEAWRPQRGLPERSVNILRAWLFEHFLHPYPSDADKHLLARQTGLSRNQVANWFINARVRLWKPMVEEMYQREVNEDDVDDMQENQNSTNTQIPTPNIIITTNSNITETKSAATATIASDKKPQINVSEIDPSIVAMNTHYSSSMPTQLTNFPTIQDESDHILYRRSGAEYGTTNMASNSEIGSNMITFGTTTASDVSLTLGLRHAGNLPENTHFSG
B4: StBEL-29: BEL transcription factor from Solanum tuberosum, SEQ ID NO:12 (protein, listed as Solanum tuberosum)
chain: QGLSLSLSSSQQPGFGNFTAARELVSSPSGSASASGIQQQQQQQQSISSVPLSSKYMKAAQELLDEVVNVGKSMKSTNSTDVVVNNDVKKSKNMGDMDGQLDGVGADKDGAPTTELSTGERQEIQMKKAKLVNMLDEVEQRYRHYHHQMQSVIHWLEQAAGIGSAKTYTALALQTISKQFRCLKDAIIGQIRSASQTLGEEDSLGGKIEGSRLKFVDNQLRQQRALQQLGMIQHNAWRPQRGLPERAVSVLRAWLFEHFLHPYPKDSDKMMLAKQTGLTRSQVSNWFINARVRLWKPMVEEMYLEEIKEHEQNGLGQEKTSKLGEQNEDSTTSRSIATQDKSPGSDSQNKSFVSKQDNHLPQHNPASPMPDVQRHFHTPIGMTIRNQSAGFNLIGSPEIESINITQGSPKKPRNNEMLHSPNSIPSINMDVKPNEEQMSMKFGDDRQDRDGFSLMGGPMNFMGGFGAYPIGEIARFSTEQFSAPYSTSGTVSLTLGLPHNENLSMSATHHSFLPIPTQNIQIGSEPNHEFGSLNTPTSAHSTSSVYETFNIQNRKRFAAPLLPDFVA
B5: pAD5-9: StBEL-05 deletion construct, aa 1 through 315 (protein)
chain: MNPNNYMQGYTTSDTQQQQQLLFLNSSPAASNALCHANIQHAPLQQQHFVGVPLPAVSLHDQINHHGLLQRMWNNQDQSQQVIVPSSTGVSATSCGGITTDLASQLAFQRPIPTPQHRQQQQQQGGLSLSLSPQLQQQISFNNNISSSSPRTNNVTIRGTLDGSSSNMVLGSKYLKAAQELLDEVVNIVGKSIKGDDQKKDNSMNKESMPLASDVNTNSSGGGESSSRQKNEVAVELTTAQRQELQMKKAKLLAMLEEVEQRYRQYHHQMQIIVLSFEQVAGIGSAKSYTQLALHAISKQFRCLKDAIAEQVKAT
modifications: left off: large carriers

Experiments:
[1] = system: POTH1 overexpression lines; assay: Exogenous GA3 application to POTH1 overexpression lines; type: in vivo, Solanum tuberosum
Excerpt: Many of the traits of the phenotypes observed in POTH1 overexpression lines were similar to GA-deficient mutants. These similarities included decreased plant height, decreased internode length, and darker green coloration of the leaves (van den Berg et al., “Morphology and [^14C]Gibberellin A12 Metabolism in Wild-Type and Dwarf Solanum Tuberosum ssp. Andigena Grown Under Long and Short Photoperiods,” J. Plant Physiol. 146:467-473 (1995), which is hereby incorporated by reference in its entirety). Because of this, exogenous GA3 was applied to determine whether the overexpression lines were responsive to GA treatment. The shoot apex of overexpression lines was sprayed to runoff with 10 μM GA3 in 0.002% (v/v) ethanol or with 0.002% (v/v) ethanol alone. […] Palisade and spongy parenchyma organization is partially rescued in leaves from line 15 treated with GA3 (FIG. 5G). The GA3-treated leaf (FIG. 5J) of the severe mutant, line 15, is more similar in morphology to the wild-type leaf (FIG. 5K). Leaflets are more ovate in form rather than the typical mouse-ear shape. Wild-type leaves have a prominent mid-vein (FIG. 5L), whereas the mid-vein (FIG. 5M, arrow) is more prominent in the mutant GA3-treated leaf than in the mutant untreated leaf (FIG. 5N). […]

[2] = system: POTH1; assay: Yeast two-hybrid interaction with POTH1; type: binding, Solanum tuberosum; conditions: nutritional selection and lacZ activation, yeast AH109
Sequence of POTH1 (as listed by the source): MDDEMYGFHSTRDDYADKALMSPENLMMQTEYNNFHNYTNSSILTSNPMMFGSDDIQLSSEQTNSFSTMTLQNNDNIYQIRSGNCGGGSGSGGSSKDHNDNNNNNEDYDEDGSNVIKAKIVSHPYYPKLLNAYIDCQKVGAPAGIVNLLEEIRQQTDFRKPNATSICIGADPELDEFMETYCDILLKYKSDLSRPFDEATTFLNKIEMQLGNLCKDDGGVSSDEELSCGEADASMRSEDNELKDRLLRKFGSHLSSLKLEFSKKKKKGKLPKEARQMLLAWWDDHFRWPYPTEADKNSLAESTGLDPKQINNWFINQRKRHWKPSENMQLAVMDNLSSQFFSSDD
Excerpt: The Matchmaker two-hybrid system (Clontech, Calif.) was used for the yeast two-hybrid screen. Yeast transformation and plasmid rescue into DH5-α E. coli cells were according to the manufacturer's instructions. Full-length POTH1 was cloned into the pBridge (Clontech, Calif.) vector and used as bait to screen the potato (S. tuberosum ‘Desireé’) stolon cDNA library in pAD-GAL4-2.1 (Stratagene, Calif.). Positive interactions were confirmed by cotransforming yeast strain AH109 with each purified pAD plasmid and pBridge: POTH1 and plating on -leucine/-tryptophan (transformation control) and -leucine/-tryptophan/-histidine/-adenine (selection) nutrient medium. Induction of the AH109 reporter gene, lacZ, was measured with a yeast β-galactosidase assay kit (Pierce Chemicals). β-galactosidase activity (FIG. 9B) was determined from a known density of yeast cells and calculated as 1000×OD420/time of color reaction (minutes)×volume of yeast culture (ml)×OD600.
The StBEL-05 deletion constructs were amplified by PCR, then cloned into the vector, pGAD, in-frame with the GAL4 activation domain. POTH1 deletion constructs were amplified by PCR, and cloned into pBridge (Clontech) in-frame with the GAL4 binding domain. Sequencing of selected cDNAs and constructs was performed at the Iowa State University DNA Facility. For deletion analysis, modified constructs of POTH1 were cloned into the pBridge vector for fusion with the DNA-binding domain of GAL4 (FIG. 10A). For StBEL-05, constructs were cloned into the pGAD vector for fusion with the activating domain of GAL4 (FIG. 10B). Deletion constructs were made from both the amino and carboxy termini. These mutants were then tested for interaction in the yeast two-hybrid system by cotransforming into yeast strain AH109 with the corresponding full-length partner (StBEL-05 in pGAL4 or POTH1 in pBridge). All constructs were sequenced to verify that they were in-frame. Positive interactions were verified for lacZ induction by using a β-galactosidase assay (Pierce Chemical Company). For POTH1, seven deletion constructs were tested (FIG. 10A). For the BEL TFs, a fusion construct of StBEL-05 (653 aa of StBEL-05 sequence) and nine deletion constructs were tested (FIG. 10B).

Molecule | effect on leaf morphology ([1]; 10 μM GA3 sprayed on shoot apex) | effect on dwarf phenotype ([1]; GA3 application) | interaction with POTH1 [2]
C=C1C[C@]23C[C@@]1(O)CC[C@H]2[C@@]12C=C[C@H](O)[C@@](C)(C(=O)O1)[C@H]2[C@@H]3C(=O)O [GA3] | partially rescued the leaf morphology of both severe and intermediate phenotypes; also recorded: partial reversal of the leaf phenotype | completely rescued the dwarf phenotype | –
B1 | – | – | showed selective interaction
B2 | – | – | showed selective interaction
B3 | – | – | showed selective interaction
B4 | – | – | showed selective interaction
B5 | – | – | demonstrated an interaction; also recorded: interaction with POTH1
